Results: patent US20120214173A1, “Methods of Identifying Modulators of an Ehd Polypeptide” (priority 2007, published 2012)
Numbering of substitutions follows the chain as printed. Names may count otherwise. “And” between values parts separate entries of the source, which are not always exact repeats. Equal entries are not always repeated. “Also recorded” adds a separate entry of the source. Each block holds one molecule with its values, some of them ahead of it. Ends that are not written are not given here.

Key:
EHD2 [1] = target: T1, EHD2 (Mus musculus, UniProt Q8BH64); test: ITC nucleotide binding to EHD2; conditions: ITC at 10° C.
T1 construct: Mouse EHD2 full-length protein and all mutants were expressed as N-terminal His-fusions followed by a PreScission cleavage site; His (N, cleaved yes); made in house; host or cells: Escherichia coli BL21 DE3 Rosetta
T1 sequence (Q8BH64 1-543): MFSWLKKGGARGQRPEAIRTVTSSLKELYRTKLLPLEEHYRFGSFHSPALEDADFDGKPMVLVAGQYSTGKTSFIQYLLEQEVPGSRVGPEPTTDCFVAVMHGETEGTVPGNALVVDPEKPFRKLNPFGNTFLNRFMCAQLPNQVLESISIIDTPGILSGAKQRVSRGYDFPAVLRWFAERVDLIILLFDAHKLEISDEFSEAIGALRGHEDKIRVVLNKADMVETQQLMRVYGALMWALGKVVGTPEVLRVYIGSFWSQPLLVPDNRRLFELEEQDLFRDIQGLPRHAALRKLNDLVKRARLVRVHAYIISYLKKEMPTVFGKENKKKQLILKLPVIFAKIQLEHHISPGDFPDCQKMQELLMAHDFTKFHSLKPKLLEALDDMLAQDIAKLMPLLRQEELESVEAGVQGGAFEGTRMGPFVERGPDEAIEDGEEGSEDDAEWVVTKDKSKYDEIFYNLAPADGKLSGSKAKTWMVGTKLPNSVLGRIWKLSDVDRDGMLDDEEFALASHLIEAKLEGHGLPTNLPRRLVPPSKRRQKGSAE
Description: (§1) Amino acid numbering corresponds to mouse EHD2. b, EHD2 binds to adenine nucleotides, as determined by ITC. For clarity, ΔΔH=ΔHn−ΔH1 is plotted. […] Images were acquired close to the basal cell surface. f, Nucleotide hydrolysis was measured by HPLC in the absence (empty symbols) or presence of Folch liposomes (filled symbols). Data represent mean and standard deviation for two (intrinisic reactions) or three (stimulated reactions) independent experiments.
(§2) ITC measurements were performed at 10° C. in 20 mM HEPES (pH 7.5), 300 mM NaCl, 2 mM MgCl2. Liposome binding assays were performed as described previously (www.endocytosis.org). Multiple turnover ATPase assays were performed in 20 mM HEPES (pH 7.5), 135 mM NaCl, 15 mM KCl, 1 mM MgCl2 at 30° C. with 10 μM EHD2 (or mutants) as enzyme and 100 μM ATP as substrate, in the absence or presence of 1 mg/ml Folch liposomes (Sigma-Aldrich).
Mouse full-length EHD2 was expressed in bacteria and purified to homogeneity (FIG. 5). The purified protein was nucleotide-free as judged by HPLC analysis. […] It was previously reported that EHDs—despite having a predicted G-domain—bind to adenine nucleotides^15. […] We still refer to this domain as a G-domain because the sequence and fold (see below) are clearly similar to other G-domains. […] Using synthetic liposomes containing various different phosphatidyl-inositols (PI) (FIG. 1c) we observed best binding to liposomes containing PI(4,5)bisphosphate (PIP2).

EH-domain of EHD2 = target: T2, EH-domain of EHD2 (Mus musculus, UniProt Q8BH64); test: ITC peptide binding to the EH-domain of EHD2; conditions: ITC at 10° C.; for affinity of xPF peptide to the EH-domain of EHD2 by ITC: 100 mM HEPES (pH 7.5), 50 mM NaCl, 200 μM CaCl2
T2 sequence (Q8BH64 449-537 limits assumed): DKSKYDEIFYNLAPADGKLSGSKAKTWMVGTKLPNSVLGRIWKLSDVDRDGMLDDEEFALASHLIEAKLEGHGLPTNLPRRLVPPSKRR
Excerpt: EH-domains are low affinity protein-protein interactors normally found in endocytic multi-subunit assemblies. A likely purpose of the EH-domain is in recruitment of the protein to sites of action. […] An alternative explanation for the function of the EH-domain in the oligomer can be proposed based on the presence of two conserved PF motifs (NPF and IPF) in a disordered surface loop at the side of the G-domain between β-sheet 2A and 2B. In our proposed oligomer, the EH-domains from one dimer are close to the side-site NPF motif of the adjacent dimer (FIG. 4c) and thus after oligomerisation on membranes they may switch position from the top site position in the dimer to the side site in the opposing dimer. […] A dominant negative mutant in C. elegans Rme1 is found in the linker between the EH-domain and the helical domain^3 pointing to the importance of this flexible linker.

EHD2 [2] = target: T1, EHD2; test: Multiple turnover ATPase assay (nucleotide hydrolysis by HPLC) with or without Folch liposomes; format: biochemical
Description: as §1, §2
Reactions were started by the addition of the protein to the final reaction mix and nucleotide hydrolysis was followed using standard HPLC measurement^27. Initial rates were determined by applying a linear fit to data points up to 40% nucleotide hydrolysis. For electron microscopic studies, 2.5 μM EHD2 in 20 mM HEPES (pH 7.5), 150 mM NaCl, 1 mM MgCl2 was incubated for 15 min at 25° C. in the presence of 1 mM nucleotide and 0.05 mg/ml (final concentration) of the indicated liposomes. Samples were spotted on carbon-coated copper grids (Canemco and Marivac) and negatively stained with 2% uranyl acetate.
We next monitored the effect of membrane-binding on the ATPase activity of. EHD2 under multiple-turnover conditions (10-fold excess of ATP over EHD2), in the presence and absence of Folch liposoines (FIG. 1f). The intrinsic/background ATPase activity is extremely slow (kobs=0.7 h^−1) but is stimulated 8-fold in the presence of Folch or PS liposomes (kobs=5.6 h^−1).

HeLa cells = test: Over-expression of EGFP-tagged EHD2 and mutants in HeLa cells (confocal / live imaging); format: cell-based; conditions: 24 h after transfection, fixed
Description: as §1
Nucleotide hydrolysis was measured as described in FIG. 1f. In vitro tubulation activity of PS liposomes was analysed as described in FIG. 1d. f, EGFP-tagged mutants were over-expressed in HeLa cells. […] For each construct, three independent experiments with ≈50 cells/experiments were analysed.
Ultracentrifugation. Sedimentation velocity experiments were performed in a Beckman Optima XLA ultracentrifuge, using an An-60Ti rotor. Centrifugation was at 50,000 rev×min and 5° C. at an EHD2 concentration of 15 μM, with scans as fast as possible (˜1.5 min intervals). The data were analysed using DCDT+ v.2^44,45, with the partial specific volume for the protein (from the amino acid composition) and solvent density and viscosity calculated using Sednterp^46. Selected scans (at equal, ˜15 min intervals), and of g(s20,w) (the amount of material sedimenting between s20,w and (s20,w+δs)) and also the residuals for fitting the data with DCDT+, were plotted with the program profit v.5.6.7 (Quantum soft, Switzerland). Cell biology. N-terminal EGFP-tagged EHD2 and all mutants were over-expressed in HeLa cells from the pEGFP-C3 vector (Clontech). HeLa cells were grown as per ECACC guidelines with 10% fetal bovine serum and transfected using Genejuice (Novagen) for transient protein expression. 24 h after transfection, cells were fixed for 10 min at 37° C. in 3% paraformaldehyde and mounted. All confocal images were taken sequentially using a BioRad Radiance system and LaserSharp software (Biorad). For real-time microscopy, transfected cells on glass-bottom Petri dishes (WillCo Wells BV, Amsterdam) were washed with 25 mM HEPES (pH 7.5), 125 mM NaCl, 5 mM KCl, 10 mM D-glucose, 1 mM MgCl2, 2 mM CaCl), and epifluorescence images were taken using an Olympus IX70 microscope (Southhall, UK) and Argon laser (Melles Griot, Carlsbad, Calif.) with a Princeton instruments (Trenton, N.J.) cooled I-PentaMAX camera with MetaMorph software (Universal imaging).
EHD2 wild-type was over-expressed in HeLa cells for 24 h and imaged by EPI-fluorescence for approximately 30 min.
EHD2 T94A was over-expressed in HeLa cells for 24 h and imaged by EPI-fluorescence for approximately 30 min. […] EHD2 I157Q was over-expressed in HeLa cells for 24 h and imaged by EPI-fluorescence for approximately 30 min.

n (fitted ITC value), nucleotide binding to EHD2 (EHD2 [1]): 0.9
Kd (EHD2 [1]; 20 mM HEPES (pH 7.5), 300 mM NaCl, 2 mM MgCl2, read-out: affinity to EHD2 determined by ITC): 50 µM and ~50 µM
Molecule: Nc1ncnc2c1ncn2[C@@H]1O[C@H](COP(=O)(O)OP(=O)(O)O)[C@@H](O)[C@H]1O [ADP]

n (fitted ITC value), peptide binding to EH-domain (EH-domain of EHD2): 1.33
Molecule: KLNPFGNT [KLNPFGNT]

affinity of xPF peptide to the EH-domain of EHD2 by ITC (EH-domain of EHD2): did not (show detectable binding
Molecule: PEKPFRKL [peptide from EHD2 containing KPF motif]

Molecule: Nc1nc2c(ncn2[C@@H]2O[C@H](COP(=O)(O)OP(=O)(O)OP(=O)(O)O)[C@@H](O)[C@H]2O)c(=O)[nH]1 [GTP, reference compound]
GTP hydrolysis by EHD2 (in words) (EHD2 [2]; presence or absence of Folch liposomes): not stimulated; also recorded: not hydrolysed

affinity of xPF peptide to the EH-domain of EHD2 by ITC (EH-domain of EHD2): did not (show detectable binding
Molecule: RMGPFVER [peptide from EHD2 linker containing GPF motif]
affinity of xPF peptide to the EH-domain of EHD2 by ITC (EH-domain of EHD2; listed as top site GPF peptide): not the top site GPF peptide, bound with a measurable affinity

Molecule: Nc1nc2c(ncn2[C@@H]2O[C@H](COP(=O)(O)OP(=O)(O)OP(O)(O)=S)[C@@H](O)[C@H]2O)c(=O)[nH]1 [GTP-γ-S]
affinity to EHD2 determined by ITC (EHD2 [1]; 20 mM HEPES (pH 7.5), 300 mM NaCl, 2 mM MgCl2): No binding signal was observed

B1: EHD2 E91Q (protein)
chain: T1 sequence (Q8BH64 1-543) with E91Q
assembly-stimulated ATP hydrolysis (Q8BH64): all mutants showed reduced or completely abolished assembly-stimulated ATP hydrolysis

B2: K329D: EHD2 polybasic cluster mutant (protein, UniProt Q8BH64 1-543, looked up, variant K329D)
EH domain-containing protein 2: T1 sequence (Q8BH64 1-543) with K329D
distribution of EGFP-tagged protein over-expressed in HeLa cells (HeLa cells): completely cytoplasmic distribution

B3: K327D: EHD2 polybasic cluster mutant (protein, UniProt Q8BH64 1-543, looked up, variant K327D)
EH domain-containing protein 2: T1 sequence (Q8BH64 1-543) with K327D
distribution of EGFP-tagged protein over-expressed in HeLa cells (HeLa cells): completely cytoplasmic distribution

B4: K324D: EHD2 polybasic cluster mutant (protein, UniProt Q8BH64 1-543, looked up, variant K324D)
EH domain-containing protein 2: T1 sequence (Q8BH64 1-543) with K324D
distribution of EGFP-tagged protein over-expressed in HeLa cells (HeLa cells): completely cytoplasmic distribution

B5: EHD2 D198R (protein)
chain: T1 sequence (Q8BH64 1-543) with D198R
assembly-stimulated ATP hydrolysis (Q8BH64): all mutants showed reduced or completely abolished assembly-stimulated ATP hydrolysis

B6: EHD2 R167E (protein)
chain: T1 sequence (Q8BH64 1-543) with R167E
assembly-stimulated ATP hydrolysis (Q8BH64): all mutants showed reduced or completely abolished assembly-stimulated ATP hydrolysis
nucleotide hydrolysis (basal and Folch-stimulated ATPase) (Q8BH64): mutant R167E (in Switch II) showed an increased basal ATPase activity which was not further stimulated by Folch liposomes
intrinsic/basal ATPase activity (in words) (EHD2 [2]; absence of membranes): increased basal ATPase activity
membrane-stimulated ATPase activity (in words) (EHD2 [2]; presence of Folch liposomes): not further stimulated by Folch liposomes

B7: EHD2 K193D (protein)
chain: T1 sequence (Q8BH64 1-543) with K193D
assembly-stimulated ATP hydrolysis (Q8BH64): all mutants showed reduced or completely abolished assembly-stimulated ATP hydrolysis
